Experiment: yeast display, Sf9 membrane polyspecificity reagent, FACS + sequencing; frameworks hold sequencing errors
Procedure, shortened: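 Galactose induction of a Saccharomyces cerevisiae BJ5465 synthetic nanobody display library ran 36–48 hours. The cells were then stained for 1 hour at 4 °C with 10% biotinylated, detergent-solubilized Sf9 membrane reagent, pulled down on streptavidin microbeads and FACS-sorted into low and high (top ~1%) gates on expression and reagent-binding fluorescence. Labels for polyreactivity follow the gate of origin.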

Sequence	polyreactivity (PSR sort gate)
QVQLVESGGGLVQAGGTLRLSCDPSGRTFYYYAMGWYRQAPGKERELVATIRSTGSTNYADSVKGRFTISRDNAKNTVYLKMNSLKPEDTAVYYCAAKPLQGVRRVEYWGQGTQVTVSS	high polyreactivity
QVQLVESGGGLVQAGGTLRLSCSASGSTFAINAMGWYRQPPGKERELVATITSGSNTNNADSVKGRFTISRDNAKNTVDLQMNSLNPEDTAVYYCAAAFGYRFHYGYFYIYDYWGQGTQVTVSS	high polyreactivity
QVQLVESGGGLVQAGGTLSLSCAASGRTFVSYTMGWYRQAPGKERELVAAINYSVASTNYADSVKGRFTISRDNAKNSVYLQMNSLKPEDTAVYYCNRASAVWGQGTQVTVSS	low polyreactivity
QVQLVESGGGLVQAGRSLRLICAASGFTFYSYAMGWYRQAPGKERELVANITIGGSTYADSVKGRFTISRDNAKNTVYLQMNSLKPEDTAVYYCARGYRVVGDPLYGDYDYWGQGTQVTVSS	low polyreactivity
QVQLVESGGGLVQAGRSLRLNCAASGSIFYYYAMGWYRPAPGKERELVAAISRNGGSTSYADSVKGRFTISRDNAKNTVYLQMNSLKPEDTAVYYCNTYGGYKYDYWGQGTQVTVSS	low polyreactivity
QVQLVESGGGLVQAGRSLRLSCAASGFIYPYNALGWYRQAPGKERELVAGITWRGASTYYADSVKGRFTISRDNAKNSVYLQMNRLKPEDTAVDYCAAAYRRVTTKTFKLDYWGQGTQVTVSS	high polyreactivity
QVQLVESGGGLVQAGRSLRLSCAASGITFDDYDMGCYRQAPGKEREFVAAISFSGSSTYYADSVKGRFTISRDNAKNTVYLLMNSLKPEDTAVYYCNADYVYSGCLYYGKDYWFDYWGHGTQVTVSS	low polyreactivity
QVQLVESGGGLVQAGRSLRLSCAASGITFQYYAMGGYRQAPGKERELVAAISSGGSTYYADSVKGRFTISRDNAKNTVYLQMNSLKPEDTAVYYCAAKRVFFGLNYDYWGQGTQVTVSS	high polyreactivity
QVQLVESGGGLVQAGRSLRLSCAASGITFYKNAMGWYRQAPGKERELVAAISSGGATTYADSVKGRFTISRDNAKNTVYLQMNSLKPEDSAVYYCAAVTRDYRNERRRQRYFYWGQGTQVTVSS	high polyreactivity
QVQLVESGGGLVQAGRSLRLSCAASGLTFGQYAMGWYRQAPGIERELVAAMNWSGDGTYYADSVKGRFTISRDNAKNTVYLQMKSLKPEDTAVYYCNAGGRRYYYIGYDYWGQGTQLTVSS	low polyreactivity
QVQLVESGGGLVQAGRSLRLSCAASGLTFRVYPMGWYRQAPGKDRELVAAITGGGGSTYADSVKGRFTISRDNAKNTVYLQMYSLKPEDTAVSYCNKKGYYYKFDYWGQGTQVTVSS	low polyreactivity
QVQLVESGGGLVQAGRSLRLSCAASGRIFNYYSMGWYRQAPGKERELVAAISSGGSTYYADSVKGRFTISRDYAKNTVYLQMNSLKPEDTAVYYCAAAYGDYGYWGQGTLVTVSS	high polyreactivity
QVQLVESGGGLVQAGRSLRLSCAASGRIFRGYAMGWYRPAPGIERELVAAISWSGGSTNYADSVKGRFTISRDNAKNSVYLQMNSLKPEDTEVYYCAARAYRVANAGYTYWGQGTQLTVSS	high polyreactivity
QVQLVESGGGLVQAGRSLRLSCAASGRIFVPYVMGWYRQAPGKERELVASISDSDTSTYYADSVKGRFTISRDNAKNTVYVQMNSLKPEDTAVYYCNVDYWGQGTQVTVSS	low polyreactivity
QVQLVESGGGLVQAGRSLRLSCAASGRISTRYAMGWYRQAPGKERELVAAITIGTDTTYADSVKGRFTISRDNAKNTVYLQMNTLKPEDTAVYYCAAERYILARFEYWGQGTQVTVSS	low polyreactivity
QVQLVESGGGLVQAGRSLRLSCAASGRTSAYYAMGWYRQPPGKERELVAGITRGGRTNYADSVKGRFTISRDNAKNTVYLQLNSLKPEDTAVYYCAAKYVYYLNSRTSGYWGQGSQVTVSS	high polyreactivity
QVQLVESGGGLVQAGRSLRLSCAASGSIFAWYGMGWYRQAPGKERELFAAISTDGSTNYADSVKGRFTISRDNAKNSVYLQMISLKREDTAVYYCAKKSSLYYPERFDYWGQGTQGTVSS	low polyreactivity
QVQLVESGGGLVQAGRSLRLSCAASGSTFKVYAMGWYRQAPGKERELVAAISASDGSTYYPDSVKGRFTISRDNAKKTVYVQMYRLKPEDTAVYYFAAVLYSDKATYDYWGQGTQVTVSS	low polyreactivity
QVQLVESGGGLVQAGRSLRLSCAASGSTFPVNTMGWYRQAPGKDRELVAAITKNGANTYYADSVKGRFTISRDNAKNTVYLQMNSLKPEDTAVYYCAARYVYGKSYSRWLVELDYWGQGTQVTVSS	low polyreactivity
QVQLVESGGGLVQAGRSLRLSCAASGSTFYAYTMGWYRKAPGKERELVAGISRRGGTTYYADSVKGRFTISRDNAKNTVYLQMNSLKPEDTAVYHCATRSWELGDYWGQGTQVTVSS	low polyreactivity
QVQLVESGGGLVQAGRSLRLSCAASGSTFYGYAMGWYRQPPGKERELVAAITSSGGSTYYADSVKGRFTISRDNAKITVYVQLNSLKPEDTAVYYCNAKRAPWGTLYNYWGQGTQVTVSS	high polyreactivity

Sequence	polyreactivity (PSR sort gate)
QVQLVESGGGLVQAGRSLRLSCAASGSTILYYAMGWYRQAHGKERELVARITTRGSRTYYADSVKGRFTISRDNAKNTVYLQMNSLKPEDTAVYYCNKVRPGYGVTYLVGYWGQGTQVTVSS	high polyreactivity
QVQLVESGGGLVQAGRSLRLSCAASGSTLLWNAMGWYRQAPGKERELVAVISWSGGSTYYGDSVKGRFTISRDNAKNTVYLQMNSLKPEDTAVYYCAHDYDGYVWDTEYDYWGQGTQVTVSS	low polyreactivity
QVQLVESGGGLVQAGRSLRLSCAASGSTYAKYAMGWYRQAPGKEREVVAVISRTGTITRYADSEKGRFTISRDNAKNTVYLQMNSLKPEDTAVYYCAATIRAYNQHGFLYPYYYWGQGNQVTVSS	high polyreactivity
QVQLVESGGGLVQAGRSLRLSCAASGYIFDTNAMGWYRQAPGKERELVAAITKSGGSTYYADSVKGRFTISRDNAKNTVYLHMNSLKPEDTAVYYCAARGTSKRWSLYDYWGQGTQVTVSS	low polyreactivity
QVQLVESGGGLVQAGRSLRLSCAAYGYTFEFYAMGWYRQAPGKEREFVAGINSSGVTTYYADSVKGRFTIARDNAKYTVYLQMNSLKPVYSAVYYCAATDVVYTWFFLVYIPYDYWGQGTQVTVSS	low polyreactivity
QVQLVESGGGLVQAGRTLRLSCAASGNIFDLNAMGWYRPAPGKERELVAAIDRGGGSTYYADSVKGRFTISRDNATNTVYLHMNSLKTEDTAVYYCSAVDQESNPAGGYWGQGSQVTVSS	low polyreactivity
QVQLVESGGGLVQAGSSLRLSCAASGRTFTGNAMGRYRQAPGKERELVADISSDGSTNYADSVKGRFTISRDNAKNTVYLQMNSLKPEDTAVYYCAADPFWTYYIDYDYWGQGTQVTVSS	low polyreactivity
QVQLVESGGGLVQAGSSLRLSCAASGSTLRTNAMGWYRQAPGKEREFVADISKRGGRTYYADSVKGRFTISRDNAKNTVYLQMNSLKPEDTAVYYCAKLVSLAGRIYGYWGQGTQVTVSS	high polyreactivity
QVQLVESGGGLVQAGVILRLSCAASGLIFGLYAMGWYRQAPGKERELVAAISYRTDSTYADSVKGRFTISRDNAKNTVYLQMNSLKPEDTAVYYCAADLRVSVRYYYWGQGTQVTVSS	low polyreactivity
QVQLVESGGGLVQAGVRLRLSCPASGFIFDWYTMGWYRQAPGKERELVAAITIGGSTDYADSVKGRFTISRDNAKNTVYLQMNSLKPEDTAVYYCNALWYLSGTWYDYWGQGTQVTVSS	low polyreactivity
QVQLVESGGGLVQAGVSLLISCAASGSTFLLNTMGWYIQAPGKERELVAAISSITGDTYYADSVKVRFTISRDNAKNNDYLQMNSLKPEDTAVYYCAARYYLSSQGWTYDYWGQGTQVTVSS	low polyreactivity
QVQLVESGGGLVQAGVSLLLSCAASGSTFGYNAMVCYRQAPGKERELVAAITSSGSTTYYADSVKGRFTISRDNAKNSVYLQLNSLKREDTAVYYCNAPAYYLHYGLYARYDYWGQGTQVTVSS	low polyreactivity
QVQLVESGGGLVQAGVSLRISCAASGGTLNGYAMGWYRQSPGKERELVAVITSGGSTNYADSVKGLFTISRDNAKNTVYLQMNSLKPEDTAVYYCAVRPYELHRLADQPGGDDYWGQGTQVTVSS	low polyreactivity
QVQLVESGGGLVQAGVSLRISCAASVRTFSRYTMGWYRPAPGKERELVAANSGDGASTYYADSVKGRFTISRDNAKYSVYLQMYSLKPEDTAVYYCAARGTRYWDYRYYAYNYWGQGTQVTVSS	high polyreactivity
QVQLVESGGGLVQAGVSLRLSCAASARIFSGYAMGWYRQAPGKEREFVAAITSSGRTKYADSVKGRFTISRDNATNTVYLQMNSLKPEDTAVYYCAAYFGYDWPEYDYWRQGTQVTVSS	high polyreactivity
QVQLVESGGGLVQAGVSLRLSCAASGFIFFPYVMGWYRQAPGKERELVARNTSGGGSTYYADSVKGRFTISRDNAKNTVYIQMNSLKPEDTAGYYCKARRIWYQSTFNYWGQGTQVTVSS	high polyreactivity
QVQLVESGGGLVQAGVSLRLSCAASGFIFWFYAMGWYRQAPGKERELVAAINWSGSYTYYADSVKARFTISRDNAKNTVYLQMNSLKPEDTAVYYCNALFSYGYWRVRYNYWGQGTQVTVSS	high polyreactivity
QVQLVESGGGLVQAGVSLRLSCAASGFTFYPYAMGWYRQAPGKERELVAAISYSGGRTYADSVKGRFTISRDNAKNTVYLQMNSLKPEDTAVYYCAADWTVLVYPYYHEYDYWGQGTQVTVSS	low polyreactivity
QVQLVESGGGLVQAGVSLRLSCAASGIIFAGYVMGWYRQAPGKARELVAAISYRGGSTNYADSVKGRFTISRDNAKNTVYLQMNSLKPEDTAVYYCNRYSRDSRYGYLKFGYDYWGQGTQVTVSS	high polyreactivity
QVQLVESGGGLVQAGVSLRLSCAASGINFTRYAMGWYRQAPGKERELVAAITRNGVSTYYADSVKGRFTISRDIAKNSVYLQMKSLKPEDTAVYYCNTFVLRRYAYCYWGQGTQVTVSS	high polyreactivity

From the nanobody polyreactivity screen of Harvey et al. (2022)
